Experiments:
VEGFA = test: ELISA on coated VEGFA
Description: (§1) The affinity of Fv2mabs consisting of the tandem Fv combinations of anti-TNF-α and anti-VEGFA; and anti-TNF-α and anti-IL17A was measured by using ELISA method. Antigens such as TNF-α, VEGFA, and IL-17A, were fixed on an immune-plate at a concentration of 100 ng/well (96 well) by using pH 7.4 PBS as a coating buffer through a reaction at 4° C. overnight. Each well was once washed with PBST 200 μl, and then a surface blocking reaction was performed at room temperature with 5% skim milk for one to two hours. Subsequently, after washing each well twice with PBST 200 μl, a serial dilution was performed with an appropriate bispecific Fv2mab to measure and a control parental antibody from an appropriate concentration in an interval of ½ to ⅕ for a reaction at room temperature for one to two hours. Then, each well was washed three times with PBST 200 μl to remove unbound antibodies, and a dilution was performed with horseradish peroxidase (HRP)-conjugated anti-human-Fc-HRP (Millipore, USA) at a ratio of 1:3000 for a reaction at room temperature for one hour. Then, each well was washed three times with PBST 200 μl to remove unbound detection antibodies. A color reaction of HRP was induced by using TMB solution (GEhealthcare, USA) in a volume of […], and the reaction was terminated by using a stop solution (2.5 M H2SO4, 100 μl/well).

TNF-α = molecular target: T1, TNF-α (UniProt P01375 77-233); test: ELISA on coated TNF-α
T1 construct: Soluble antigen used as analyte in the OCTET assay and coated in ELISA; also called TNF-a
Description: as §1

Sequence of VEGFA (P15692 whole entry): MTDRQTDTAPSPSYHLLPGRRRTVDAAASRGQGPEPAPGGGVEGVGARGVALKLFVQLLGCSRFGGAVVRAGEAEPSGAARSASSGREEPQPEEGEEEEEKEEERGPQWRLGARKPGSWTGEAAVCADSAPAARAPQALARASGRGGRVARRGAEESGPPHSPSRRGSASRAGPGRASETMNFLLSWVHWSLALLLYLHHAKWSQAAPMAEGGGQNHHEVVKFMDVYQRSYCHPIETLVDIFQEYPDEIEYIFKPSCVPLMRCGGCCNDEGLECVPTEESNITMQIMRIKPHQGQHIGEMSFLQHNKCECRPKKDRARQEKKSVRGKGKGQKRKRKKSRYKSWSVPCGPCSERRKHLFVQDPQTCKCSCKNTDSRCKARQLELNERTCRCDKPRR
T1 sequence (P01375 77-233 limits assumed): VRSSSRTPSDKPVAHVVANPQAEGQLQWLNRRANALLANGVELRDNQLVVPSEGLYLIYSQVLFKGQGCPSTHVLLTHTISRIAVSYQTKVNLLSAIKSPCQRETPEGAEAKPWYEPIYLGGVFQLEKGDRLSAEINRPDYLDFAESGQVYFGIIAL

B1: anti-VEGFA AB (antibody, V domains shown)
VH: QVTLKESGPTMVKPTQTLTLTCTFSGFSLSTSGVAVGWIRQPPGQALEWLALIYWDNDKRYSPSLKNRLTVAKDTSKSQVVLTMTNMDPMDTATYYCAHGDGWLFDFWGQGTLVTVSS
VL: QPVLTQPPSVSGAPGQRVTISCTGSNSNIGAGHDVHWYQQLPGAAPKVVIYGNTNRASGVPERFSGSKSATSASLAITGLQAEDEADYYCQSYDNSLSGYVFGTGTKVTVL
notes: The sheet calls it 'parantal antibody'; also called anti-VEGFA antibody; F6 (in-house)
EC50 (read off the curve) (VEGFA): ~0.3 nM | binding result (TNF-α): binds
